# Data from publication PMC9482650, “Quantitative fragmentomics allow affinity mapping of interactomes” (Nature Communications, 2022).
# T1: MAGI2_1, Q86UL8
# T1 sequence (Q86UL8 12-111, limits assumed, looked up): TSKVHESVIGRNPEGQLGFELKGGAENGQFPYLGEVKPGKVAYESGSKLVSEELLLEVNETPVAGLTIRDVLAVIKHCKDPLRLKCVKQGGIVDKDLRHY
# T2: PDZD2_5, O15018
# T2 sequence (O15018 2617-2716, limits assumed, looked up): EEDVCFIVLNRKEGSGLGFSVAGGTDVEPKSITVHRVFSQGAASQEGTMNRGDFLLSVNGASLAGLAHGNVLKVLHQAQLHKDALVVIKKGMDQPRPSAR
# T3: PDZD2_6, O15018
# T3 sequence (O15018 2745-2839, limits assumed, looked up): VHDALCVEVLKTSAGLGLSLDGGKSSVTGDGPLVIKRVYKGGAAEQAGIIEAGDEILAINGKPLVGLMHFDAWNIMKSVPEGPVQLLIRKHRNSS
# T4: MPDZ_11, O75970
# T4 sequence (O75970 1720-1817, limits assumed, looked up): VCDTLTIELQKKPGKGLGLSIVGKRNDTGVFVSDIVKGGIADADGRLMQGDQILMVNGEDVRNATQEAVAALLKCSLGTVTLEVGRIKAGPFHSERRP
# T5: SHROOM2, Q13796
# T5 sequence (Q13796 21-118, limits assumed, looked up): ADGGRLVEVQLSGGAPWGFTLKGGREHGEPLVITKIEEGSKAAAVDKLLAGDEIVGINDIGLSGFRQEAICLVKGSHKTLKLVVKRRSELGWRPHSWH
# T6: MPDZ_13, O75970
# T6 sequence (O75970 1982-2070, limits assumed, looked up): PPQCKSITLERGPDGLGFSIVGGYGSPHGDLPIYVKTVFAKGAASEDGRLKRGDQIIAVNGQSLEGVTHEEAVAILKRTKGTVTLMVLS
# T7: SHROOM3, Q8TF72
# T7 sequence (Q8TF72 20-120, limits assumed, looked up): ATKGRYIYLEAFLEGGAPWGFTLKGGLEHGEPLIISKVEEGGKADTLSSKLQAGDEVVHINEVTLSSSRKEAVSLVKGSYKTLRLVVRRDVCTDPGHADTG
# T8: GIPC1, O14908
# T8 sequence (O14908 128-223, limits assumed, looked up): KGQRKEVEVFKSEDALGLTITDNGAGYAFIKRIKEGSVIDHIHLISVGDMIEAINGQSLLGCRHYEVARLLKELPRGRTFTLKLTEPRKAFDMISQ
# T9: TJP3_2, O95049
# T9 sequence (O95049 190-282, limits assumed, looked up): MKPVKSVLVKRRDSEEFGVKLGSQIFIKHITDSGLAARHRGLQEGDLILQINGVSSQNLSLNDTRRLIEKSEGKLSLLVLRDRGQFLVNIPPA
# T10: PDZD7_1, Q9H5P4
# T10 sequence (Q9H5P4 81-178, limits assumed, looked up): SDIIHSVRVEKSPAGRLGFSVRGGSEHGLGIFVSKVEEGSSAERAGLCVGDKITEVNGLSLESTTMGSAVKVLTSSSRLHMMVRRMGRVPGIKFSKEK
# Target: PARD3B_2, Q8TEW8
# Sequence (Q8TEW8 376-471): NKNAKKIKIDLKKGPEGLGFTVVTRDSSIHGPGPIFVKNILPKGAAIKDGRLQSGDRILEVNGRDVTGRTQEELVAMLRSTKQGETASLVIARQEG
# Experiment: holdup assay
# Design: key: below the threshold = too weak to quantify, mostly under pKd 3.1 to 4
# Conditions: plain residues with an end cap or a label only (N-terminal biotin on a linker: ttds)
row,Binder,pKd
1,"DEDQHTQITKV [PTEN, P60484]",below the threshold
2,"TGDTLEKFVEGL [CBP, Q92793]",3.9

# Target: DLG2_1, Q15700
# Experiment: holdup assay
# Design: key: below the threshold = too weak to quantify, mostly under pKd 3.1 to 4
# Conditions: plain residues with an end cap or a label only (N-terminal biotin on a linker: ttds)
row,Binder,pKd
1,"DEDQHTQITKV [PTEN, P60484]",below the threshold
2,"TGDTLEKFVEGL [CBP, Q92793]",below the threshold

# Target: T1, MAGI2_1, Q86UL8
# Experiment: holdup assay
# Design: key: below the threshold = too weak to quantify, mostly under pKd 3.1 to 4
# Conditions: plain residues with an end cap or a label only (N-terminal biotin on a linker: ttds)
row,Binder,pKd
1,"DEDQHTQITKV [PTEN, P60484]",below the threshold
2,"TGDTLEKFVEGL [CBP, Q92793]",below the threshold

# Target: T2, PDZD2_5, O15018
# Experiment: holdup assay
# Design: key: below the threshold = too weak to quantify, mostly under pKd 3.1 to 4
# Conditions: plain residues with an end cap or a label only (N-terminal biotin on a linker: ttds)
row,Binder,pKd
1,"DEDQHTQITKV [PTEN, P60484]",below the threshold
2,"TGDTLEKFVEGL [CBP, Q92793]",3.8

# Target: T3, PDZD2_6, O15018
# Experiment: holdup assay
# Design: key: below the threshold = too weak to quantify, mostly under pKd 3.1 to 4
# Conditions: plain residues with an end cap or a label only (N-terminal biotin on a linker: ttds)
row,Binder,pKd
1,"DEDQHTQITKV [PTEN, P60484]",3.56
2,"TGDTLEKFVEGL [CBP, Q92793]",3.86

# Target: LMO7, Q8WWI1
# Sequence (Q8WWI1 1037-1138): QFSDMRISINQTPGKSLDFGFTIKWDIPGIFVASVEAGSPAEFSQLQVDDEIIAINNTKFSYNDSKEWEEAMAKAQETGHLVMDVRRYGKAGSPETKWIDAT
# Experiment: holdup assay
# Design: key: below the threshold = too weak to quantify, mostly under pKd 3.1 to 4
# Conditions: plain residues with an end cap or a label only (N-terminal biotin on a linker: ttds)
row,Binder,pKd
1,"DEDQHTQITKV [PTEN, P60484]",below the threshold

# Target: T4, MPDZ_11, O75970
# Experiment: holdup assay
# Design: key: below the threshold = too weak to quantify, mostly under pKd 3.1 to 4
# Conditions: plain residues with an end cap or a label only (N-terminal biotin on a linker: ttds)
row,Binder,pKd
1,"DEDQHTQITKV [PTEN, P60484]",below the threshold
2,"TGDTLEKFVEGL [CBP, Q92793]",below the threshold

# Target: MAGIX, Q9H6Y5
# Sequence (Q9H6Y5 118-211): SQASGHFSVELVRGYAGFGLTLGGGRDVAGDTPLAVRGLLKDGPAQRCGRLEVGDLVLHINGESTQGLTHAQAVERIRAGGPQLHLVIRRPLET
# Experiment: holdup assay
# Design: key: below the threshold = too weak to quantify, mostly under pKd 3.1 to 4
# Conditions: plain residues with an end cap or a label only (N-terminal biotin on a linker: ttds)
row,Binder,pKd
1,"DEDQHTQITKV [PTEN, P60484]",below the threshold
2,"TGDTLEKFVEGL [CBP, Q92793]",below the threshold

# Target: MAGI3_3, Q5TCQ9
# Sequence (Q5TCQ9 572-655): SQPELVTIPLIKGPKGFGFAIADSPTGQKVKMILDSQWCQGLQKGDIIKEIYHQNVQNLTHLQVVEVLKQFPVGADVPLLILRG
# Experiment: holdup assay
# Design: key: below the threshold = too weak to quantify, mostly under pKd 3.1 to 4
# Conditions: plain residues with an end cap or a label only (N-terminal biotin on a linker: ttds)
row,Binder,pKd
1,"DEDQHTQITKV [PTEN, P60484]",below the threshold
2,"TGDTLEKFVEGL [CBP, Q92793]",below the threshold

# Target: MAGI3_5, Q5TCQ9
# Sequence (Q5TCQ9 847-941): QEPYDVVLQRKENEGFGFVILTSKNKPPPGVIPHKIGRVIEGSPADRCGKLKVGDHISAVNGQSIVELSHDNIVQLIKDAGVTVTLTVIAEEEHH
# Experiment: holdup assay
# Design: key: below the threshold = too weak to quantify, mostly under pKd 3.1 to 4
# Conditions: plain residues with an end cap or a label only (N-terminal biotin on a linker: ttds)
row,Binder,pKd
1,"DEDQHTQITKV [PTEN, P60484]",below the threshold
2,"TGDTLEKFVEGL [CBP, Q92793]",below the threshold

# Target: MAGI1_6, Q96QZ7
# Sequence (Q96QZ7 1146-1238): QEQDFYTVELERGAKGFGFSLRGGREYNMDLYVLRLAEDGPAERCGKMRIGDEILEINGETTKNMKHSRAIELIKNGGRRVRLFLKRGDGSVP
# Experiment: holdup assay
# Design: key: below the threshold = too weak to quantify, mostly under pKd 3.1 to 4
# Conditions: plain residues with an end cap or a label only (N-terminal biotin on a linker: ttds)
row,Binder,pKd
1,"DEDQHTQITKV [PTEN, P60484]",below the threshold
2,"TGDTLEKFVEGL [CBP, Q92793]",below the threshold

# Target: MAGI1_5, Q96QZ7
# Sequence (Q96QZ7 986-1098): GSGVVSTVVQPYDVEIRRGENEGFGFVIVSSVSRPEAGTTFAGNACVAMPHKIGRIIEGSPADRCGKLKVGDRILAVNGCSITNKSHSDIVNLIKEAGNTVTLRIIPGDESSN
# Experiment: holdup assay
# Design: key: below the threshold = too weak to quantify, mostly under pKd 3.1 to 4
# Conditions: plain residues with an end cap or a label only (N-terminal biotin on a linker: ttds)
row,Binder,pKd
1,"DEDQHTQITKV [PTEN, P60484]",4.53
2,"TGDTLEKFVEGL [CBP, Q92793]",4.17

# Target: PARD3_1, Q8TEW0
# Sequence (Q8TEW0 264-372): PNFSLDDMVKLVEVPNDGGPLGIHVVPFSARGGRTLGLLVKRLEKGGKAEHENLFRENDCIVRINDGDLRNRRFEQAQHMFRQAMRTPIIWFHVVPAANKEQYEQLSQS
# Experiment: holdup assay
# Design: key: below the threshold = too weak to quantify, mostly under pKd 3.1 to 4
# Conditions: plain residues with an end cap or a label only (N-terminal biotin on a linker: ttds)
row,Binder,pKd
1,"DEDQHTQITKV [PTEN, P60484]",below the threshold
2,"TGDTLEKFVEGL [CBP, Q92793]",below the threshold

# Target: MAST3, O60307
# Sequence (O60307 945-1048): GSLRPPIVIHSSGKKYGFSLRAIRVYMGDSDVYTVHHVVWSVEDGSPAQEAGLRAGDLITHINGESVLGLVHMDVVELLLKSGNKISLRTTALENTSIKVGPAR
# Experiment: holdup assay
# Design: key: below the threshold = too weak to quantify, mostly under pKd 3.1 to 4
# Conditions: plain residues with an end cap or a label only (N-terminal biotin on a linker: ttds)
row,Binder,pKd
1,"DEDQHTQITKV [PTEN, P60484]",3.59
2,"TGDTLEKFVEGL [CBP, Q92793]",below the threshold

# Target: T5, SHROOM2, Q13796
# Experiment: holdup assay
# Design: key: below the threshold = too weak to quantify, mostly under pKd 3.1 to 4
# Conditions: plain residues with an end cap or a label only (N-terminal biotin on a linker: ttds)
row,Binder,pKd
1,"DEDQHTQITKV [PTEN, P60484]",below the threshold
2,"TGDTLEKFVEGL [CBP, Q92793]",3.83

# Target: T6, MPDZ_13, O75970
# Experiment: holdup assay
# Design: key: below the threshold = too weak to quantify, mostly under pKd 3.1 to 4
# Conditions: plain residues with an end cap or a label only (N-terminal biotin on a linker: ttds)
row,Binder,pKd
1,"TGDTLEKFVEGL [CBP, Q92793]",below the threshold

# Target: T7, SHROOM3, Q8TF72
# Experiment: holdup assay
# Design: key: below the threshold = too weak to quantify, mostly under pKd 3.1 to 4
# Conditions: plain residues with an end cap or a label only (N-terminal biotin on a linker: ttds)
row,Binder,pKd
1,"TGDTLEKFVEGL [CBP, Q92793]",below the threshold

# Target: SDCBP_1, O00560
# Sequence (O00560 111-198): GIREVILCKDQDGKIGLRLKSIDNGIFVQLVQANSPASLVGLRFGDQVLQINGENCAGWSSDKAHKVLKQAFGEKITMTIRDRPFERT
# Experiment: holdup assay
# Design: key: below the threshold = too weak to quantify, mostly under pKd 3.1 to 4
# Conditions: plain residues with an end cap or a label only (N-terminal biotin on a linker: ttds)
row,Binder,pKd
1,"DEDQHTQITKV [PTEN, P60484]",below the threshold
2,"TGDTLEKFVEGL [CBP, Q92793]",below the threshold

# Target: T8, GIPC1, O14908
# Experiment: holdup assay
# Design: key: below the threshold = too weak to quantify, mostly under pKd 3.1 to 4
# Conditions: plain residues with an end cap or a label only (N-terminal biotin on a linker: ttds)
row,Binder,pKd
1,"DEDQHTQITKV [PTEN, P60484]",below the threshold
2,"TGDTLEKFVEGL [CBP, Q92793]",below the threshold

# Target: DLG5_2, Q8TDM6
# Sequence (Q8TDM6 714-800): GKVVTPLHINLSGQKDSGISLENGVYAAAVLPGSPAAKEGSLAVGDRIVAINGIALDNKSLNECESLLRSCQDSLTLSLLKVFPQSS
# Experiment: holdup assay
# Design: key: below the threshold = too weak to quantify, mostly under pKd 3.1 to 4
# Conditions: plain residues with an end cap or a label only (N-terminal biotin on a linker: ttds)
row,Binder,pKd
1,"DEDQHTQITKV [PTEN, P60484]",below the threshold
2,"TGDTLEKFVEGL [CBP, Q92793]",below the threshold

# Target: T9, TJP3_2, O95049
# Experiment: holdup assay
# Design: key: below the threshold = too weak to quantify, mostly under pKd 3.1 to 4
# Conditions: plain residues with an end cap or a label only (N-terminal biotin on a linker: ttds)
row,Binder,pKd
1,"DEDQHTQITKV [PTEN, P60484]",below the threshold
2,"TGDTLEKFVEGL [CBP, Q92793]",3.95

# Target: CARD14, Q9BXL6
# Sequence (Q9BXL6 558-663): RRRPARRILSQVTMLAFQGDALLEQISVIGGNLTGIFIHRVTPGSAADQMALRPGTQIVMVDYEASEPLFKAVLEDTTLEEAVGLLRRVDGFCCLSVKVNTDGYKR
# Experiment: holdup assay
# Design: key: below the threshold = too weak to quantify, mostly under pKd 3.1 to 4
# Conditions: plain residues with an end cap or a label only (N-terminal biotin on a linker: ttds)
row,Binder,pKd
1,"DEDQHTQITKV [PTEN, P60484]",below the threshold
2,"TGDTLEKFVEGL [CBP, Q92793]",below the threshold

# Target: T10, PDZD7_1, Q9H5P4
# Experiment: holdup assay
# Design: key: below the threshold = too weak to quantify, mostly under pKd 3.1 to 4
# Conditions: plain residues with an end cap or a label only (N-terminal biotin on a linker: ttds)
row,Binder,pKd
1,"DEDQHTQITKV [PTEN, P60484]",below the threshold
2,"TGDTLEKFVEGL [CBP, Q92793]",below the threshold

# Target: AHNAK2, Q8IVF2
# Sequence (Q8IVF2 108-193): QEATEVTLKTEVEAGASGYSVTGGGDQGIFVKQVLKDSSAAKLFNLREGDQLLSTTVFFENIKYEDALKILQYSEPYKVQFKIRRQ
# Experiment: holdup assay
# Design: key: below the threshold = too weak to quantify, mostly under pKd 3.1 to 4
# Conditions: plain residues with an end cap or a label only (N-terminal biotin on a linker: ttds)
row,Binder,pKd
1,"DEDQHTQITKV [PTEN, P60484]",below the threshold
2,"TGDTLEKFVEGL [CBP, Q92793]",below the threshold
